Experimental data as given in patent US20050064507.

Key:
[1] = biological target: T1, CLK3 peptide RWKRRRSYSREH (SEQ ID NO:196) (not fully specified)
T1 chain: RWKRRRSYSREH

[2] = biological target: T2, BTK peptide PGSSHRKTKK (SEQ ID NO:195) (not fully specified)
T2 chain: PGSSHRKTKK

[3] = biological target: T3, SOLH peptide PLRRRESMHVEQ (SEQ ID NO:210) (not fully specified)
T3 chain: PLRRRESMHVEQ

[4] = biological target: T4, PSCDBP peptide FLRRSSSRRNRS (SEQ ID NO:180) (not fully specified)
T4 chain: FLRRSSSRRNRS

[5] = biological target: T5, NKTR peptide RSRSYSRSRSR (SEQ ID NO:211) (not fully specified)
T5 chain: RSRSYSRSRSR

[6] = biological target: T6, MAST4 peptide VRRSKKSKKKES (SEQ ID NO:203) (not fully specified)
T6 chain: VRRSKKSKKKES

[7] = biological target: T7, CLK2 peptide RRRRSRTFSRS (SEQ ID NO:178) (not fully specified)
T7 chain: RRRRSRTFSRS

[8] = biological target: T8, CXCR4 peptide VSRGSSLKILSK (SEQ ID NO:212) (not fully specified)
T8 chain: VSRGSSLKILSK

[9] = biological target: T9, SHP-1 peptide DKEKSKGSLKRK (SEQ ID NO:209) (not fully specified)
T9 chain: DKEKSKGSLKRK

[10] = biological target: T10, nucleolar phosphoprotein p130 peptide TKKKRGSYRGGS (SEQ ID NO:182) (not fully specified)
T10 chain: TKKKRGSYRGGS

[11] = biological target: T11, CHD1 peptide EGRRSRSRRYSG (SEQ ID NO:205) (not fully specified)
T11 chain: EGRRSRSRRYSG

B1: PKC-theta (protein)
chain: MSPFLRIGLSNFDCGSCQSCQGEAVNPYCAVLVKEYVESENGQMYIQKKPTMYPPWDSTFDAHINKGRVMQIIVKGKNVDLISETTVELYSLAERCRKNNGKTEIWLELKPQGRMLMNARYFLEMSDTKDMNEFETEGFFALHQRRGAIKQAKVHHVKCHEFTATFFPQPTFCSVCHEFVWGLNKQGYQCRQCNAAIHKKCIDKVIAKCTGSAINSRETMFHKERFKIDMPHRFKVYNYKSPTFCEHCGTLLWGLARQGLKCDACGMNVHHRCQTKVANLCGINQKLMAEALAMIESTQQARCLRDTEQIFREGPVEIGLPCSIKNEARPPCLPTPGKREPQGISWESPLDEVDKMCHLPEPELNKERPSLQIKLKIEDFILHKMLGKGSFGKVFLAEFKKTNQFFAIKALKKDVVLMDDDVECTMVEKRVLSLAWEHPFLTHMFCTFQTKENLFFVMEYLNGGDLMYHIQSCHKFDLSRATFYAAEIILGLQFLHSKGIVYRDLKLDNILLDKDGHIKIADFGMCKENMLGDAKTNTFCGTPDYIAPEILLGQKYNHSVDWWSFGVLLYEMLIGQSPFHGQDEEELFHSIRMDNPFYPRWLEKEAKDLLVKLFVREPEKRLGVRGDIRQHPLFREINWEELERKEIDPPFRPKVKSPFDCSNFDKEFLNEKPRLSFADRALINSMDQNMFRNFSFMNPGMERLIS
in vitro phosphorylation (% of best substrate) [1]: 32 | in vitro phosphorylation (% of best substrate) [2]: 33 | in vitro phosphorylation (% of best substrate) [3]: 16 | in vitro phosphorylation (% of best substrate) [4]: 65 | in vitro phosphorylation (% of best substrate) [5]: 16 | in vitro phosphorylation (% of best substrate) [6]: 24 | in vitro phosphorylation (% of best substrate) [7]: 65 | in vitro phosphorylation (% of best substrate) [8]: 13 | in vitro phosphorylation (% of best substrate) [9]: 17 | in vitro phosphorylation (% of best substrate) [10]: 61 | in vitro phosphorylation (% of best substrate) [11]: 22
